# Experimental data as given in patent publication US20240083986A1.
# B1: H4H16950P (antibody, human IgG4, V domains shown)
# VH: QVQLVQSGAEVKKPGASVKVSCKTSGYTFTNYGITWVRQAPGQGLEWMGWISAYNGNTNYAQNVQGRVTMTTDTSTSTAYMEVRSLRSDDTAVYYCARRSSMLHFQHWGQGTLVTVSS
# VL: DIVMTQSPDSLAVSLGERATINCKSSQHVLYDSSNENYLAWFQQKPGQPPKLLIYWASTRESGVPDRFSGSGSGTDFTLTISSLQAEDVAVYYCQQYSSAPYTFGQGTKLEIK
# B2: H4H16991P (antibody, human IgG4, V domains shown)
# VH: QVQLVQSGAEVRKPGASVKVSCKASGYTFTGYYLHWVRQAPGQGLEWMGLINPNTGGTNFAQKFQGRVTMTRDSSISAAYMELSRLRSDDTAVYYCARQHWNRYFDNWGQGTLVTVSS
# VL: DIQMTQSPSTLSASVGDRVTITCRASQSVGNWLAWYQQKPGKAPKLLIQEASSIESGVPSRFSGSGSGTEFTLIVSSLQPDDFATYYCQQYNSYSWTFGHGTKVEIK
# B3: H4H16987P (antibody, human IgG4 S228P, kappa, V domains shown)
# VH: EVQLVESGGGLVQPGGSLRLSCAASGFTVSSNSMSWVRQAPGEGLEWVSVIFSGGITYYSDSVKGRFTISRHNSKNTLYLQMNSLRTEDTAVYYCARHSNWNFDAFDIWGQGTMVTVSS
# VL: DIQMTQSPSSLSASVGDRVTITCRASQSFDTYLNWYQQKPGKAPNLLIYATSSLQSGVPSRFSGSGSGTDFTLTISSLQPEDFGTYYCQQSYSIPYTFGQGTKLEIKR
# B4: H4H17015P (antibody, human IgG4, V domains shown)
# VH: QVQLQESGPGLVKPSQTLSLTCTVSGGSISSADHYWSWIRQQPGKGLEWIGYISYRGTTYYNPTLESRVSISVDTFKNQFSLMLHSVTVADTAVYYCAKVLQGLVRFRDYGFDVWGQGTTVTVSS
# VL: DIQLTQSPPFLSASVGDRVTITCWASQDISSYLAWYQQNPGKSPKLLIYDAFTLHTGVPSRFSGSGSGTEFTLTISSLQPEDFATFYCQHLYSFPFTFGPGTKVDIK
# B5: H4H17001P (antibody, human IgG4, V domains shown)
# VH: QVQLVESGGGLVKPGGSLRLSCAASGFTFSDYYMNWIRQAPGKGLEWISLISSSGSAIYYSDSVKGRFTISRDNARKSLYLQVNSLRAEDTAVYYCARDRGEWALGAYYYGLDVWGQGTTVTVSS
# VL: DIVMTQSPLSLPVTPGEPASISCRSSQSLLHSDGYNYLDWYLQKSGQSPQLLIYLGSNRASGVPDRFSGSGSGTDFTLKISRMEAEDVGVYYCMQALQTPYTFGQGTKLEIK
# B6: H4H17028P (antibody, human IgG4, V domains shown)
# VH: QVQLVESGGGVVQPGRSLRLSCAASGFTFSRYAIHWVRQAPGKGLEWVAVISYDGDDKYYGDSVKGRFTISRDNSKTMVYLHMNSLRTEDTAVYYCAKDGYSLYGKDYFDYWGQGTLVTVSS
# VL: EIVLTQSPGTLPLSPGERATLSCRASQSITNSYLAWYQQKPDQAPRLLIYGASSRATGIPDRFSGSESGTDFTLTISRLEPEDFAVYYCQQYVRSPWTFGQGTKVEIK
# B7: H4H17027P (antibody, human IgG4, V domains shown)
# VH: EVQLVESGGGLVQPGGSLRLSCAASGFTFRNYAMHWVRQAPGEGLEWVAAIYRNSDSIDYADSVKGRFTISRDNAKNSLYLQMNSLKTEDTALYYCAKDEGFLEYFDSWGQGTLVTVSS
# VL: EIVLTQSPGTLSLSPGERASLSCRASQSVSSSFLAWYQQKPGQAPRLLIYGVSSRFIGIPDRFSGGGSGTDFTLTITRLEPEDFAVYYCQQYGRSPWTFGQGTKVEIK
# B8: H4H17031P (antibody, human IgG4, V domains shown)
# VH: QVQLQQWGAGLLKPSETLSLTCVVYGESFGNYHWNWIRQSPGKRLEWIGEINQNGHTNYNPSLKSRVTISVDTSKIQFSLRLNSVTAADTAVYFCARGHNYVNSYFGLDVWGQGTTVTVSS
# VL: EIVMTQSPATLSVSPGERATLSCRTSQSVSISLAWYQRKPGQAPRLLIFGSSTRATGVPARFSGSGSGTEFTLTISSLQSEDFAVYYCQQYNNWPYTFGQGTKLEIK
# B9: H4H16960P (antibody, human IgG4, V domains shown)
# VH: QLQLQESGPGLVRPSETLSLTCTVSGGSISSSNYWWGWIRQPPGKGLEWIGSIYYSGITYYNPSLKSRVTISADTSKDQFSLKLRSVTAADTAVYYCAKLEWLRLDFWGQGTTVTVSS
# VL: DIQMTQSPSSVSASVGDRVTITCRASQGISSWLVWYQQKPGKVPKLLIYAASSLQSGVPLRFSGSGSGTDFTLTISSLQPEDFATYYCQQAKSFPLTFGQGTRLEIK
# B10: H4H17033P (antibody, human IgG4, V domains shown)
# VH: QVQLVQSGAEVKKPGASVKVSCKASGYTFAAHYMHWVRQAPGQGLEWMGWINTYTGGTNYGQKFQGRVTMTRDTSITTAYMELSRLRSDDTAVYYCARDRRNWNFVFEYWGQGTLVTVSS
# VL: DIQMTQSPSSLSASVGDRVTISCRASQNIKNYLNWYQQKPGKAPKLLIYEASNLQSGAPSRFSGSGSGTDFTLTISSLEPEDFATYYCQQSFSIPWTFGQGTKVEIK
# B11: H4H16946P (antibody, human IgG4, V domains shown)
# VH: EVQLVESGGGLVQPGGSLRLSCVASGFTFSNYDMNWVRQAPGEGLEWISYISYSDHNIYYIDSVKGRFTISRDNAKNSLYLQMNSLRAEDTAIYYCAREALASSSFDYWGQGTLVTVSS
# VL: EIVMTQSPATLSVSPGERVTLSCRASQSVSGNLAWYQQKPGQAPRLLIYSASTGATGVPARFSGSGSGTEFTLTISSLQSEDFALYYCQQYNKWPRTIGQGTKVEIK
# Molecular target: Hazel (Cor A 1, MyBiosource, Cat #MBS5304600) (Hazel) (UniProt Q08407)
# Assay: SPR, mAb captured via anti-hFc, 25 C
row,Binder,100 nM Analyte Bound (RU)
1,B1,0
2,B2,0
3,B3,0
4,B4,1
5,B5,0
6,B6,0
7,B7,0
8,B8,0
9,B9,0
10,B10,0
11,B11,-1
